From paper PMC9260506, “Identification of Highly Cross-Reactive Mimotopes for a Public T Cell Response in Murine Melanoma” (Frontiers in Immunology, 2022) come the findings set out here.

Assay [1] deals with 7PPG2 TCR, recombinant soluble (mouse) (UniProt P01849). The experiment in a line: SPR. The conditions noted are these: peptide-MHC.
Assay [2] concerns the target 7PPG4 TCR, recombinant soluble (mouse) (UniProt P01849). Briefly: SPR. Conditions: peptide-MHC.

Broadly, the Kd is the constant that tells how readily two partners part at equilibrium. Consider “7PPG2-mim6 mimotope () presented by H-2K^b, refolded pMHC (from UniProt P61769 21-119)”, for which the Kd is 19 µM in assay [1] and more than 100 µM in assay [2].
